# Source: the nanobody polyreactivity screen of Harvey et al. (2022)
# Test: yeast display, Sf9 membrane polyspecificity reagent, FACS + sequencing; frameworks hold sequencing errors
# Procedure, shortened: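 Nanobodies came from a synthetic yeast display library in Saccharomyces cerevisiae BJ5465, induced with galactose for 36–48 hours and stained for 1 hour at 4 °C with 10% biotinylated, detergent-solubilized Sf9 membrane reagent. Cells were enriched on streptavidin microbeads and then FACS-sorted, with low and high (top ~1%) gates set on anti-HA fluorescence for expression and streptavidin fluorescence for reagent binding. Each polyreactivity label reflects the gate a clone came from. Genes were amplified by colony PCR, sequenced by MiSeq 2 × 250 and filtered by CDR length.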
row,Sequence,polyreactivity (PSR sort gate)
1,QVQLVESGGGLVQAGGSLRLSCAASGLIFYKYAMGWYRQAPGKERELVASISTGGGSTYYADSVKGRFTISRDNAKNTVYLQMNSLKPEDTAVYYCAARWWRRFRGSHSLYDYWGQGTQVTVSS,high polyreactivity
2,QVQLVESGGGLVQAGGSLRLSCAASGLTFRWYAMGWYRQAPGKERELVAAISSGGSTNYADSVKGRFTISRDNAKNTVYLQMNSLKPEDTAVDYCNAKGRPWFKYDYWGQGTQVTVSS,high polyreactivity
3,QVQLVESGGGLVQAGGSLRLRCAASGRIFYFNAMGWYRQAPGKEREFVASINSIGDSTYYADSVKGRFTISRDTAKNTVYLQMNSLKPEDTAVYYCNADHGVINYRLDYWGQGTQVTVSS,low polyreactivity
4,QVQLVESGGGLVQAGGSLRLRCAASGSTFYYYAMGWYRQAPGKERELVAANTLRGTSTYYADSVKGRFTISRDNAKNTVYLQMNRLKPEDTAVYYCAVETYYSIFDIYDYWGQGTQVTVSS,low polyreactivity
5,QFQLVESGGGLVQAGGSLRLSSAASGSIFRSYAMGWYRQAHGKERELVAAISSRSGSTYYADSVKGRFTISRDNAKNTVYLQMNSLKPEETAVYYCAAQHRHSYGYWGQGTQVTVSS,high polyreactivity
6,QVQLVESGGGLVQAGGRLRLICAASGRIFYRNAMGWYRQAPGKERELVAAISYSGGRTYYADSVKGRFTISRDIAKYTVYLQMNRLKPEDTAVYYCAVYGYHEGGYWGQVTQVTVSS,high polyreactivity
7,QVQLVESGGGLDQAGGSLPLSCAASGSTFPGNAMGWYSQARGKERELVARINDGADTNYADSVKGRFTISRDNAKNTVYLQMNSLKPEDTAVYYCAADKRGTVYLSSFWMDYWGQGTQVTVSS,low polyreactivity
8,QVQLVESGGGLVQAGGSLRLSCAASGFIFGGNAMGWYRQAPGKERELVAAVSWIAGSTHYADSVKGRFTISRDNAKNTVYLQMNSLKPEDTAVYYCAADHEGSLSRGFTETDYDYWGQGTQVTVSS,low polyreactivity
9,QVQLLESGGGLVQAGRSLRLSCAPSGIIFRVYAMGWYRQAPGKERELVAAISSSGGNTYYADSVKGRFTISRDNAKNTVYLQLNSLKPEDTAVYYCAAPYGQLFTQGTWYEYWGQGTQVTVSS,low polyreactivity
10,QVQLVESGGGLVQAGGSLRLSCAASGITFLFYAMGWYRQAPGKERELVAAISRSGGSTYYADSVKGRFTISRDNAKNTVYLQMNSLKPEDTAVYYCAARSKDGGGPMYYWGQGTQVTVSS,high polyreactivity
11,QVQLVESVGGLVQAGGSLRLSCAASGFTFHAYAMGWYRQAPGKERELVAVITRGGSTYYADSVKRRFTISLDNAKNTVYLQMKSLKPEDTAVYYCAAVRTKDWRGPEMDYWGQGTQVTVSS,high polyreactivity
12,QVQLVDSGGGLVQAGGSLRLRCAASGITFLGNDMGWYRQAPGKERELVAAISSGSTNYADSVKGRFTISRDNANKTVDLQMNSLKPADPAVYYCAADIRGGLSNYSPKDYDYWGQGTQVTVSS,low polyreactivity
13,QVQLVESGGGLVQAGGSLRLSCAASGIIFRYYAMGWYRQAPGKERELVAAITWSGGTYYADSVKGRFTISRDNAKKTVYLQMNSLKPEETAVYYCAAVYYGYRDRTDYGYWGQGTQVTVSS,high polyreactivity
14,QVQLVESGVGLVQAGGSLSLSCAASGCTLRYYVMGWYRQAPGKERELVASISWSGDSTYYADSVKGRFTISRDNAKNTVYLQMNSLKPEDTAVYYCAARRWYVHYFAYGYWGQGTQVTVSS,low polyreactivity
15,QVQLVESGRGLVQAGGSLRLSCAASGSTFYANTMGWYRQAPGKERELVAAISQSGGSTYYADSVKGRFTISRDNAKNTVYLQMNSLKPEDTAVYYCAARRLPRKERKLYYWGQGTQVTVSS,high polyreactivity
16,QVQLVESGGGLVQAGGSLRLSCAASGSTFYYYTMGWYRQAPGKERELVAAISSSGGSTYYADSVKGRFTISRDNAKNTVYLQMNSLKPEDTAVYYCNAARKGYRVYTLIDRHKYDYWGQGTQVTVSS,high polyreactivity
17,QVQLVESGGGLVQAGGSLRLSCAASGFTFWDYAMGWYRQAPGKERELVAAISSRGTRTYYADSVKGRFTISRDNAKNTVYFQMNSLKPEDTAVYYCATAIPDPDYIHNYWGQGTQVTVSS,high polyreactivity
18,QVQLVESGGGLVQAGGSLRLSCAASGSTFVSNAMGWYRQAPGKERELVATITTSGGSTYYADSVKGRFTISRDNAKNTVYLQMNSLKPEDTAVYYCNADYDFNFIDWVYFLYDYWGQGTQVTVSS,low polyreactivity
19,QVQLVESGGGLVQAGGSLRLSCAASGRIFYYNAMGWYRQAPGKERELVAAITYIGGNTHYADSVKGRFTISRDNAKNTVYFQMNSLKPEDTAVYYCARGTVLGFYYEYGYWGQGTQVTVSS,low polyreactivity
20,QVQLVESGGGLVQAGGSLRLSCAASGRTFRGYAMGWYRQAPGKERELVAAISASGGSTYYADSVKGRFTISRDNAKNTVYLQMNSLKPEDTAVYYCAARFWFTKGYDYWGQGTQVTVSS,high polyreactivity
21,QVQLVESGGGLDQAGGRLRLSCAASGRTFIVFAMGWYRQAPGKESELVAGITRGSTNYADSVKGRFTISRDNAKNTVYLQMNSLKPEDTEVYYCATEVYIWPWGTVYAFEYDYWGQGTQVTVSS,high polyreactivity
22,QVQLVESGGGLVQAGGSLRLSCAASGITFEGYAMGWYRQAPGNEREFVAAITSTGTSTRYADSVKGRFTISRDNAKNTVYLQMNSLKPEDTAVYYCAATSHFLSWHLRYYWGQGTQVTVSS,high polyreactivity

row,Sequence,polyreactivity (PSR sort gate)
1,QVQLVESGGGLVQAGGSLRISCAASGSIFQNYAMGGYRQAPGKERELVAAINDDSTYYADSVKGRFTISRDNAKNPVDLQMNSLKPEDTAVYYGNKEFLRRQRVTFWHLGGYWGQGTQVTVSS,low polyreactivity
2,QVQLVESGRGLVQAGGSLRLSCAASGFTFAGYAMGWYRQATGKERELVAAITWSGGRTYYADSVKGRFTISRDNAKNTVYLQMKSLKPEDTAVYYCAAASGRSRYEYWGQGTQVTVSS,high polyreactivity
3,QVQLVESGGGLVQARGSLRLSCAASGSIFYNYGMGWYRQAPGKERELVAAIRASGDSTYYADSVKGRFTISRDNAKNTVYLQMNSLKPEDTAVYYCAARPNQSYYGLYYYWGQGTQVTVSS,low polyreactivity
4,QVQLVESGGGLVQAGGSLRLSCAASGNIFRYYAMGWYRQAPGKERELVARISTGSSTYYADSVKGRFTISRDNAKNTVYLQMNSLKPEDTAVYYCAAANYRYRVPWFYYWGQGTQVTVSS,high polyreactivity
5,QVQLVESGGGLVQAGGSLRLSCAASGFTFYIYAMGWYRQAPGKERELVAAINFRGGSTYYADSVKGRFTISRDNAKNTVYLQMNSLKPEDTAVYYCAARSRDKYDYWGQGTQVTVSS,high polyreactivity
6,QVQLVESGGGLVQAGGSLRLTCAASGRIFYGYTMGWYRKAPGKERELVAAITRRGGRTYYADSVKGRFTISRDNAKNTVYLQMNCLKPEDTAVYYCAATRSGEYDYWGQGTQVTVSS,high polyreactivity
7,QVQLVESGRGLVQAGGSLRLSFAASGITFGPNEMGWYRQAPGKERELVAAISKSGGTTYYADSVKGRFTISRDNAKNTDYLQMNSLKPEDTAVYYCAARCYPYYASFRYDYWGQGTQVTVSS,high polyreactivity
8,QVQLVESGGGLVQAGGSLRLSCAASGSTFPYYAMGWYRQAPGKERELVAAITSGGSTNYADSVKGRFTISRDNAKNTVYLQMNSLKPEDTAVYYCNAEWRRRYTYLRRVYYGFDYWGQGTQVTVSS,high polyreactivity
9,QVQLVESGGGLVQAGGSLRLSCAASGSIFVRNAMGWYRQAPGKERELVASISYSGGTTYADSVKGRFTISRDNAKNTVYLQMNSLKPEDTAVYYCNAGGVYPRFTFLEQGYEMDYWGQGTQVTVSS,low polyreactivity
10,QVQLVESGGGLVQAGGSLRLSCAASGFIFRNYAMGWNTQAPGKERELVAAISRSVGRTYYADSVKGRFTISRDNAKNTVYLQMNSLKPEDPAVYYCAVHIYGIGFYFTYLYVNGYDYWGQGTQVTVSS,high polyreactivity
11,QVQLVESGGGLVQAGGSLLLSCAASGRTFAPYAMGWYRQAPGKERELVAAISSGGGNTYYADSVKGRFTISRDNAKITVYLHMNSLKPEDTAVYYCNAAQRRGGLGYSGQGTQVTVSS,high polyreactivity
12,QVQLVESGGGLVQAGGSLRLSCAASGRTSYTYVMGWYRQAPGKERELVAAIRLSGGNTYYADPVKGRFTISRDNAKNTVYLQMNSLKPEDTAVYYCAAQYWRHRKAYGYWGQGTQVTVSS,high polyreactivity
13,QVQLVESGGGLVQAGGSLRLSCADSGSSFPSYAMLWYRQAPGKERELVAAISSSGGRTYYADYVKGRFTISRDNAKNTVYLQMNSLIPVDTAVYYCAADRRKWPTGGYWGEGTQVTVSS,high polyreactivity
14,QVQLVESGGGLVQAGGSLRLSCAASGRIFVPNAMGWYRQAPGKERELVAAITSSGSSTYYADSVKGRFTISRDNAKNTVYLQMNSLKPEDTAVYYCNTLWGGFSWFRVDSWGQGTQVTVSS,high polyreactivity
15,QVQLVESGGGLVQAGGSLRLSCAASGGIFPKNAMGWYRQAPGKERELVAAINWSGGTTNYADSVKGRFTISRDNAKNTVYLQMNSLKPEDTAVYYCAKQGLWIFVVVEMDYWGQGTQVNVSS,low polyreactivity
16,QVQLVESGGGLVQAGGSLRLSCASTGRIFDRNAMGWYRQAPGKVRELVAAISRRGGSTYYADSVKGRFTISRDNAKNNVYLQMNILKPEDTAVYYCNSGYSTRLHDYWGQGTQVTVSS,high polyreactivity
17,QVQLVESGGGLVQAGGSLRLSCAASGRTIYYYAMGWYRQAPGKERELVAAINYGSGGSTYYADSVKGRFTISRDNAKNTVYLQMNSLKPEDTAVYYCNARRQDWPRKAYGYWGQGTQVTVSS,high polyreactivity
18,QDQLVESRVGLVQAGGSLRLSCAASGRIIPKYAMGWYRQAPGKERELVAAISSSGGSTYYADSVKGRFTISRDYAKNNVYLQMNSLNPEVTAVYYCNVDKATRYRYPGFDYWGQGTQVSVSS,high polyreactivity
19,QVQLVESGGGLVQAGGSLRLSCAASGITFKFYAMGWYRQAPGKERELVAAIDSRGGSTYYADSVKGRFTISRDNAKNTVYLQMNSLKPEDTSVYYCNKVGRRKLDYWGQGTQVTVSS,high polyreactivity
20,QVHLVESGGGLVHAGGSLRLTCAASGITSLRYAMGWYRQAPGKEREFVAAIRTIGGSTYYADSVKGRFTISRDNAKNTVYLEMNSLKPEDTPVYYCAALYFLYRSGSSHLDSWGQGTQVTVSS,high polyreactivity
21,QVHLVESGGGLVQAGGRLRLSCAASGFTYYRYTMGWYRQAPGKERELVAAISWNGGRTYYADSVKGRFTISRDNAKNTVYLQMNSLKPEDTAVYYCAAVQHYTNRYPAVDYWGQGTQVTVSS,high polyreactivity
